Assay results as given in the RNAGym collection of RNA variant scans (doi:10.1021/acssynbio.7b00057).

B1: Pistol ribozyme (parent)
chain: GGGUCGUUGUUCCAUAAUCGCGUGGAUAUGGCACGCAAGUUUCUACCGGGCACCGUAAAUGUCCGACUGGAGCCGUUCGGGCGGCUAUAAACAGACCUCAGGCCCGAAGCGUGGCGGCACCUGCCGCCGGUGGUAAAAAAGAUCGGAAGAGCACACGUCU

Variants of: B1
Experiment: aptazyme ON/OFF ratio, guanine; higher = stronger switching; co-transcriptional cleavage with and without guanine

Row | Variant | aptazyme ON/OFF ratio
1 | U8A G9C U10C U11A | 0.878
2 | U7A U8A G9A U10C U11G C12A C13U | 1.12
3 | U8C G9C U10C U11C C12U C13G | 1
4 | U7A U8G G9C U10C U11C C12U C13A | 1.05
5 | U11A C12A C13G | 1.53
6 | U7A U8A G9C U10A U11C C12A C13A | 1.12
7 | U8C G9C U10A U11G C12U C13U | 1.22
8 | U7C U10G U11G C12A C13G | 1.16
9 | U7G U10G U11G C12G C13A | 1.1
10 | U7G G9A U10C U11A C12A C13U | 1.09
11 | U7C U8C G9C U11G C12A | 1.22
12 | U7G U8G U10A C13G | 1.29
13 | U8A G9A U11C C13U | 1.04
14 | U8A G9U U10C U11G C12A C13U | 1.12
15 | U7G U8G G9A U10G U11C C12A C13G | 1.15
16 | G9U U11C C12U C13G | 1.23
17 | U7C U8G U10A U11G C12U C13A | 1.07
18 | U7C U8A G9C U10G U11C C13U | 1.09
19 | U7A G9A U10G U11G C12U | 1.47
20 | U8G U10A C12U | 1.17
21 | U8A G9C U10C U11G C12A C13U | 1.02
22 | U7G U8A G9U C12U C13G | 1.07
23 | U7G U8C G9U U10A U11C C12U C13G | 1.25
24 | U7G U8A U10G U11C C13U | 1.5

Row | Variant | aptazyme ON/OFF ratio
25 | U7C U8G G9U U10A C12U | 1.15
26 | U7A U8G U10A C12A | 1.23
27 | G9U U10G U11G C12U C13G | 1.17
28 | U7C G9C U10C C13A | 1.04
29 | U7C U8C G9U U10A U11A C12A C13G | 1.11
30 | U8C G9A U10C U11G C12U C13A | 1.42
31 | U7A U8A G9U U11A C12G | 1.33
32 | U7C U8C U10G U11C C12G | 1.4
33 | U7G U8A G9C U10G U11G C12A C13U | 1.03
34 | U7G U8C G9U U10G U11C C12A C13A | 1.23
35 | U8C G9C C12G C13U | 1.13
36 | U8C G9C C12G C13A | 1.14
37 | U7C G9A U10G C13U | 1.34
38 | U7A U8C G9A U10G U11A C12G C13A | 1.11
39 | U8G G9C C12G C13G | 1.03
40 | U7C G9C U10C U11C C12G C13A | 1.03
41 | U7C U8G G9U U10G U11G C13U | 1.21
42 | U8A G9C U10G U11G C13G | 1.16
43 | U7A G9A U10A U11C C12U C13G | 1.18
44 | U8A G9U U10A U11C C12G C13U | 1.34
45 | U7C U8C G9C C12G | 1.18
46 | U8G U10A C12A C13G | 1.05
47 | U7C U10A U11G C12G C13A | 1.26
48 | U7C G9U U11G C12A C13A | 1.19

Row | Variant | aptazyme ON/OFF ratio
49 | U7C U8C G9A U10G U11C C12G C13G | 1.26
50 | U7A U8C U10C U11C C12G | 1.19
51 | U7A U8A G9A U10G C12U C13U | 0.929
52 | U7C U8A U11G C12G C13G | 1.13
53 | U7A U8G G9U U10G U11A C13U | 1.14
54 | U7A U8A G9A U10G U11C C12U C13U | 1.23
55 | U7A G9U U11A C12U C13U | 1.22
56 | U7G U11G C12A C13A | 1.13
57 | U7G U8A G9A U10G U11C C12G | 1.17
58 | U7A G9A U10G U11C C13A | 1.19
59 | U8A G9A U11G C12A C13G | 1.21
60 | U7C U10G U11C C12A C13A | 1.21
61 | U7G G9A U10C U11G C12U C13G | 1.11
62 | U7G G9A U10C U11G C12U C13U | 1.14
63 | U7A U8C U10A C12A | 1.24
64 | U7G G9C U10G U11A | 1.37
65 | U7A U8A U10C U11C | 1.04
66 | U8G G9U C13A | 1.39
67 | U8A G9U U10C U11C C12A C13U | 1.04
68 | U7G U8G G9C C12A C13U | 1.2
69 | U7G U8A G9C U10C U11A C13A | 1.1
70 | U7A G9A U10C U11G C13U | 1.25
71 | U8G U10C | 3.87
72 | U7G U8C G9C U10C U11G C12G C13U | 1.05

Row | Variant | aptazyme ON/OFF ratio
73 | U7G U8C G9A U10A U11A C12A | 1.28
74 | U7C U8C U10A U11G C12U | 1.25
75 | U7C U8C G9U U10G C13A | 1.21
76 | U7G U8G G9U U10C C12G | 1.22
77 | U7A U8C G9U U10C C13A | 1.09
78 | U7C G9A U10A U11G | 1.27
79 | U7G U8G G9U U10A U11G C12A | 1.03
80 | U7A U10G U11C C12U C13A | 1.3
81 | U8G G9U U10A U11C C12G C13G | 1.11
82 | U7A U8G G9U C12G C13A | 1.22
83 | U7C U8C U11G C12U C13U | 1.22
84 | U7G U8C U11C C13G | 1.07
85 | U8G G9U U10A U11G C12G | 1.27
86 | U7A U8G G9A U10G U11C C12U | 1.16
87 | U8C U10G U11A C13U | 1.18
88 | U10G U11C C12G | 1.43
89 | U7C U8A G9A U10C U11G | 1.32
90 | U7A U8G G9A U10G U11A C13G | 1.16
91 | U7G U8C G9U U10A | 4.06
92 | U8A G9A U10C U11A C13A | 1.11
93 | G9A U11A C13G | 1.1
94 | U7A G9C U10G U11C C12A C13G | 1.05
95 | U7A U8A U10C U11C C12A C13U | 1.12
96 | U8C G9A U11C C12U | 1.16

Row | Variant | aptazyme ON/OFF ratio
97 | U7A U8C G9U U10A U11C C13U | 1.06
98 | U8G G9A U10C C12A C13G | 1.09
99 | U7A U8A G9A U10C U11C C12A C13A | 1.12
100 | U7G U8G G9U U11A C12G | 1.29
101 | G9C U10C C12U C13G | 1.06
102 | U7A U8G G9C U10C U11G C12G C13U | 1.09
103 | U7C U8G G9U U10A U11G C12A C13G | 1.14
104 | U7C G9U U11C C12U C13G | 1.05
105 | U7A G9C U10G U11A C12G C13G | 1.21
106 | U7G U8G U10A U11C C12A | 1.4
107 | U7G U8G G9A U10G U11A C13A | 1.11
108 | U8C G9U U10G U11G C13G | 1.13
109 | U7A U10G C12U | 1.29
110 | U7A U8G U10A U11A C12G C13U | 1.63
111 | U8C U10A U11C C12A | 1.08
112 | U7C U8G G9C U10G U11A C12A | 1.34
113 | U7A U8C G9A U10A C12G C13A | 1.14
114 | U7A U8C G9C U10C C13A | 1.06
115 | U7C U8A G9A C12U C13U | 1.18
116 | U7C U8G G9A U10C C13U | 1.92
117 | U8G U10C U11G C12A C13U | 1.2
118 | U7C U8A G9C U10C C13A | 1.03
119 | U7C U8G U10A C12U C13G | 1.13
120 | U7C U8G G9C U10G U11C C12U C13G | 1.25

Row | Variant | aptazyme ON/OFF ratio
121 | U7C U8A U10C U11C C12U C13G | 1.05
122 | U7A U11C | 1.29
123 | U7A U8A U10C C12G C13A | 1.17
124 | U7A G9A U11G C12A C13G | 1.28
125 | U7A G9A U10G C13A | 1.29
126 | U7G U8C U10A U11A C12U | 1.43
127 | U7C U8A U11G C12A C13U | 1.24
128 | U7A U8G U11G C12U | 1.29
129 | U8G G9C U11A C12A C13G | 1.05
130 | U7A U8A U11G C12G C13A | 1.1
131 | U7G U8G G9U U11G C12A C13G | 1.12
132 | U8G U11C C12G | 1.3
133 | U7G U8G G9A C12A C13G | 1.11
134 | U7A U8A G9A U10C C12U C13U | 1.19
135 | U7C U8G U10C U11A C12A C13U | 1.33
136 | U7A U8C G9C U10A U11G C13U | 1.09
137 | U7G U8A G9U U10G C12U C13U | 1.13
138 | U8C G9U U11C C12G C13U | 1.15
139 | U8C U10G U11G C13U | 1.22
140 | U7A U8C G9A U10A U11G C12G C13U | 1.11
141 | U7G G9C U10C C13U | 1.47
142 | U8C G9C U10A C12A C13U | 1.11
143 | U8C G9A U10G U11G C13U | 1.09
144 | U8A G9A U10A C12U C13G | 1.24

Row | Variant | aptazyme ON/OFF ratio
145 | U8A G9U U10G U11G C13U | 1.03
146 | U7C G9A U10G C12G C13G | 1.1
147 | U8G G9U | 3.25
148 | U7C G9U C12G C13U | 1.15
149 | U7C G9U C12G C13G | 1.1
150 | U8G G9U U10A C12A | 1.43
151 | U7G U8A G9C U10A U11G | 1.05
152 | U8C G9C U10G U11A C12A C13U | 1.1
153 | U7A U8G G9U U10G C12G C13A | 1.37
154 | U7C U8G G9C U10C U11A C12A C13U | 1.09
155 | U7C U8C G9C U10G U11A C13U | 1.09
156 | U7C U10A C13A | 1.06
157 | U7A U8C G9C U10A C12A | 1.09
158 | U7A U8C G9U U10A U11A C12A C13G | 1.22
159 | U7G G9A U11G C12A C13G | 1.07
160 | U7G U8A G9A U10A U11C C13A | 1.1
161 | U7C U8A G9C U10G U11C C12G C13G | 1.23
162 | U7G U8C G9C U10A C12U C13G | 1.01
163 | U7G U8A G9A U10C U11C C12A | 1.11
164 | U7C U10G U11C C12G C13A | 1.22
165 | G9A U10A U11A C12U C13A | 1.3
166 | U7C U8G G9U U10A U11C C12G | 1.2
167 | U8G G9U U10G U11C C12U C13U | 1.03
